Experimental data: US20240268361A1

Key:
[1] = target: mouse TFR1 (NP_035768.1) (mouse) (UniProt Q62351); experiment: flow cytometry, C57BL/6 wild-type mouse B cells stained with APC anti-human CD71
[2] = target: mouse TFR1 (NP_035768.1) (mouse) (UniProt Q62351); experiment: flow cytometry, C57BL/6 wild-type bone marrow erythroid cells stained with APC anti-human CD71
[3] = target: humanized TFR1 protein (engineered mouse TFR1 after humanization) (chimeric mouse/human) (UniProt P02786); experiment: flow cytometry, bone marrow erythroid cells of TFR1 gene humanized homozygous mouse stained with APC anti-human CD71
Chain of UniProt P02786 (P02786 other isoform, or with tags, fused parts or gaps mutant): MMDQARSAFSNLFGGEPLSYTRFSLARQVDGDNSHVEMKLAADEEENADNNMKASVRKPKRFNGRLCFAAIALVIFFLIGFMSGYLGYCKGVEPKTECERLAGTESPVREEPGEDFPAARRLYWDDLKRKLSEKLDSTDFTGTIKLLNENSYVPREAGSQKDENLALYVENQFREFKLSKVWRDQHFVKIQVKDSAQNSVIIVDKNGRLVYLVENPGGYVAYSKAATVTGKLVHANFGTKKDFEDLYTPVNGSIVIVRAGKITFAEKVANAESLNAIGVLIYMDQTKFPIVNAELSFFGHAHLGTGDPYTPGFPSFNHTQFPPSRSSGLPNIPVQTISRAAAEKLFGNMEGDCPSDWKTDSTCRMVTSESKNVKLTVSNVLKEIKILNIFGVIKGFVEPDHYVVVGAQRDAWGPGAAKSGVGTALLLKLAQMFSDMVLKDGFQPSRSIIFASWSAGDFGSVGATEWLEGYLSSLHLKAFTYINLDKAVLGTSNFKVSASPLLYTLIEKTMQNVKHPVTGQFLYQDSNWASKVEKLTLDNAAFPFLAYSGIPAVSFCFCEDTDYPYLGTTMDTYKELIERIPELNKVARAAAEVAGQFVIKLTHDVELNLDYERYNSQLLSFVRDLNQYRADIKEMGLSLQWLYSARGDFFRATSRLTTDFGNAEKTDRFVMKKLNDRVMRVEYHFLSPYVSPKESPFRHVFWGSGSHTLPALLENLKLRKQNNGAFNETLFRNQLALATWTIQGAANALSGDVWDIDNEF

[4] = target: humanized TFR1 protein (engineered mouse TFR1 after humanization) (chimeric mouse/human) (UniProt P02786); experiment: flow cytometry, B cells of TFR1 gene humanized heterozygous mouse (carry both mouse and humanized TFR1) stained with APC anti-human CD71
[5] = target: mouse TFR1 (NP_035768.1) (mouse) (UniProt Q62351); experiment: flow cytometry, B cells of TFR1 gene humanized heterozygous mouse (carry both mouse and humanized TFR1) stained with PE anti-mouse CD71
[6] = target: mouse TFR1 (NP_035768.1) (mouse) (UniProt Q62351); experiment: flow cytometry, C57BL/6 wild-type bone marrow erythroid cells stained with PE anti-mouse CD71
[7] = target: mouse TFR1 (NP_035768.1) (mouse) (UniProt Q62351); experiment: flow cytometry, C57BL/6 wild-type mouse B cells stained with PE anti-mouse CD71
[8] = target: humanized TFR1 protein (engineered mouse TFR1 after humanization) (chimeric mouse/human) (UniProt P02786); experiment: flow cytometry, bone marrow erythroid cells of TFR1 gene humanized homozygous mouse stained with PE anti-mouse CD71

Chain of UniProt Q62351 (Q62351 whole entry): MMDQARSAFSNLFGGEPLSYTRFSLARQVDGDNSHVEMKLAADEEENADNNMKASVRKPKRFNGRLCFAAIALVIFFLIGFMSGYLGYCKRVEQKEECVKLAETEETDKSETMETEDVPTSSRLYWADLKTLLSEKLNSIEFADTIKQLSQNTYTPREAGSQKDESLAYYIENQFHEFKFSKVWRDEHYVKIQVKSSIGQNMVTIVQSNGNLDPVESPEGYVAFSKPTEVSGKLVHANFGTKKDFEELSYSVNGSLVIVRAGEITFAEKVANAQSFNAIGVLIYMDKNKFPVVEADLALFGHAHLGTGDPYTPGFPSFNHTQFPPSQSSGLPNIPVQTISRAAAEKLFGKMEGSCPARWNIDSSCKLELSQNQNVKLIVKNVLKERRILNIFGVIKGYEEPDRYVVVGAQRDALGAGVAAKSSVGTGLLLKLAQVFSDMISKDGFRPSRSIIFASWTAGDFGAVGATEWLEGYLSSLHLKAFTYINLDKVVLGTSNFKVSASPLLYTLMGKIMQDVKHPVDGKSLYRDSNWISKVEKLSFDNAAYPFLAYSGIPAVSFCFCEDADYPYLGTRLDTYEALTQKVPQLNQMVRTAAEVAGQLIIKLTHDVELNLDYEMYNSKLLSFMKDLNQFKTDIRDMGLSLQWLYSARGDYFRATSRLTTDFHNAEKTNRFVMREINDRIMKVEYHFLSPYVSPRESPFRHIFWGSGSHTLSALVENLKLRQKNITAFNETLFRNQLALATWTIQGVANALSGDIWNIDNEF

| Substance | percent of B cells positive [1] | percent of erythroid cells positive [2] | percent of erythroid cells positive [3] | percent of B cells positive [4] | percent of B cells positive [5] | percent of erythroid cells positive [6] | percent of B cells positive [7] | percent of erythroid cells positive [8] |
| --- | --- | --- | --- | --- | --- | --- | --- | --- |
| APC anti-human CD71 Antibody (BioLegend, Catalog number: 334107) | 0.2% | 0.087% | 10.1% | 11.3% | – | – | – | – |
| PE anti-mouse CD71 Antibody (BioLegend, Catalog number: 113807) | – | – | – | – | 32.9% | 14.2% | 50.6% | 0.04% |
